Measured values as given in paper PMC7113306.
pKd: −log10 of the molar value. Where two headings read alike, the source gives them in different places.

Tests used:
[1] = target: ALK1-Fc (ALK1 extracellular domain-Fc fusion protein) (UniProt P37023); test: SPR; Biacore T100; ALK1-Fc (800 RU) or ALK1 monomer (270 RU) amine-coupled to a CM5 chip; ligands injected at 30 μl min^-1 in 0.01 M HEPES pH 7.4, 0.5 M NaCl, 3 mM EDTA, 0.5 mg ml^-1 BSA, 0.01% P20, 25 °C; 1:1 model with mass transport limitations; KD = kd/ka
[2] = target: ALK1-Fc ECD (Homo sapiens) (UniProt P37023); details: cited from earlier work
[3] = target: ALK1-Fc ECD (Homo sapiens) (UniProt P37023); details: cited from earlier work; remark: listed apart in the source

ALK1-Fc (ALK1 extracellular domain-Fc fusion protein), sequence (P37023 22-118): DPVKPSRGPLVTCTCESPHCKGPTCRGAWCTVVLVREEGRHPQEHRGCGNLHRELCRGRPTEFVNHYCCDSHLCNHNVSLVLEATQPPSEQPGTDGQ
ALK1-Fc ECD (Homo sapiens), sequence (P37023 22-118): as above
BMP10, sequence (O95393 317-424): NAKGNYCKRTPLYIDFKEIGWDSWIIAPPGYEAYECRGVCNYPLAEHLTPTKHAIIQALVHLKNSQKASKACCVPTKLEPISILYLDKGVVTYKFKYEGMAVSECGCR
BMP9, sequence (Q9UK05 320-429): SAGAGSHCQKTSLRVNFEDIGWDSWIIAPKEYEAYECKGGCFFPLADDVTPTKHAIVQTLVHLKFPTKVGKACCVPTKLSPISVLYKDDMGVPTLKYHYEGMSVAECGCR

## BMP10 GF-domain (bone morphogenetic protein 10 growth factor domain) (from UniProt O95393 317-424) (ligand)
[1]
  pKd: 10.46

## BMP9 GF-domain (bone morphogenetic protein 9 growth factor domain) (from UniProt Q9UK05 320-429) (ligand)
[1]
  pKd: 10.32

## BMP9 (from UniProt Q9UK05)
[2]
  pKd: 10.34

## BMP10 (from UniProt O95393)
[3]
  pKd: 10.99
